From publication PMC3661714 (Circulation, 2013)
Starred links: 1 amine or outer side, 2 acyl side, 3 side chain; linkers in the order of their positions; H or OH if unused. Residues, ends and D or L forms follow the SMILES beside them. Groups on a side chain read outwards from the residue. *: point of attachment. X1 = FCCOC1CCCC2C(=CNN=C2c2ccc(CN*)cc2)CC1; Glutaryl = O=C(CCCC(=O)[*:2])[*:1]

Tests used:
[1] = biological target: T1, plasma transglutaminase factor XIII (FXIII) (Mus musculus, UniProt Q8BH61); assay: Scintillation counting of 18F-FXIII signal in hearts with or without MI; assay type: in vivo; details: p<0.05
T1 sequence (Q8BH61 1-732): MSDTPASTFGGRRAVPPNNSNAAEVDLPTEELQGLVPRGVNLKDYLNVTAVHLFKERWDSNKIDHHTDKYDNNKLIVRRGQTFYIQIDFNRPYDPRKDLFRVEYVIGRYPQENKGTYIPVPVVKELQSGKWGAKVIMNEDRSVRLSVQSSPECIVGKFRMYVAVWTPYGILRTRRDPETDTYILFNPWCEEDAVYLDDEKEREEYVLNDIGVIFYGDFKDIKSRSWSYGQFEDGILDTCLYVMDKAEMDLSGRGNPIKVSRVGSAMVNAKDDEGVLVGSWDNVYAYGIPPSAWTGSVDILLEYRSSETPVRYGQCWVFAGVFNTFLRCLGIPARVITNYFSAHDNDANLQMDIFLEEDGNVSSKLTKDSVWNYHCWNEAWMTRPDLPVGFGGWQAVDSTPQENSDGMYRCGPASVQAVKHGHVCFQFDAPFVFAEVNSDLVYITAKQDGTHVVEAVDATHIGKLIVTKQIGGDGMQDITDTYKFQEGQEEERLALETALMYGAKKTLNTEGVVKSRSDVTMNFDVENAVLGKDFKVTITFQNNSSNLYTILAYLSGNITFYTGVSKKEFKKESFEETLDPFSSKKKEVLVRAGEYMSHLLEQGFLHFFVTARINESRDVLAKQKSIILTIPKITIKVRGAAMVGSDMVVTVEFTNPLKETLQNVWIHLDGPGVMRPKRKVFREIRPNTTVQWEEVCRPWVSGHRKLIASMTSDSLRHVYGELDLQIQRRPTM

[2] = B6 mice, injected i.v., n = 5, R^2 = 0.95, mean±SEM
[3] = in vivo; details: B6, mouse, iv, SEM

CC(=O)NCC(=O)N[C@@H](CC(N)=O)C(=O)N[C@@H](CCC(N)=O)C(=O)N[C@@H](CCC(=O)O)C(=O)N[C@@H](CCC(N)=O)C(=O)N[C@H](C(=O)N[C@@H](CO)C(=O)N1CCC[C@H]1C(=O)N[C@@H](CC(C)C)C(=O)N[C@H](C(=O)N[C@@H](CC(C)C)C(=O)N[C@@H](CC(C)C)C(=O)N[C@@H](CCCCNC(=O)CCCC(=O)NCc1ccc(C2=NNC=C3CCC(OCCF)CCCC32)cc1)C(=O)N[C@@H](Cc1c[nH]c2ccccc12)C(=O)O)[C@@H](C)O)C(C)C (stereo partly drawn) [18F-FXIII] (Ac-GNQEQVSPLTLLK([Glutaryl-X1])W-OH; N-terminus and C-terminus assumed)
Signal intensity in hearts of FXIII−/− mice with MI (specificity) ([1]; day 4 after MI, comparable to non-infarcted wild-type B6 and FXIII−/− mice): significantly lower
18F-FXIII signal in the heart, B6 mice with MI compared to control mice ([1]; day 4 after coronary ligation, n = 4-5 per group): significantly higher
blood half-life [2]: 13.2 ± 0.94 min
tissue uptake at 1.25 h ([3]; blood): 0.49 ± 0.03 %ID/g
tissue uptake at 1.25 h ([3]; bone): 0.31 ± 0.03 %ID/g
tissue uptake at 1.25 h ([3]; fat): 0.17 ± 0.01 %ID/g
tissue uptake at 1.25 h ([3]; heart): 0.23 ± 0.03 %ID/g
tissue uptake at 1.25 h ([3]; intestines): 0.25 ± 0.04 %ID/g
tissue uptake at 1.25 h ([3]; kidney): 1.26 ± 0.06 %ID/g
tissue uptake at 1.25 h ([3]; liver): 2.83 ± 0.22 %ID/g
tissue uptake at 1.25 h ([3]; lymph node): 0.6 ± 0.1 %ID/g
tissue uptake at 1.25 h ([3]; muscle): 0.15 ± 0.01 %ID/g
tissue uptake at 1.25 h ([3]; skin): 0.31 ± 0.05 %ID/g
tissue uptake at 1.25 h ([3]; spleen): 0.49 ± 0.05 %ID/g
tissue uptake at 1.25 h ([3]; tail): 0.41 ± 0.03 %ID/g
